The binders below were run against T1, HLA-A*01 (human) (assay: UV peptide-exchange ELISA; ++ = yield >20%).
T1 construct: MHC monomer made peptide-receptive by UV cleavage of a UV-sensitive ligand; also called peptide-receptive MHC class I monomer
Excerpt: (§1) Candidate peptides for T cell based therapies according to the present invention were further tested for their MHC binding capacity (affinity). The individual peptide-MHC complexes were produced by UV-ligand exchange, where a UV-sensitive peptide is cleaved upon UV-irradiation, and exchanged with the peptide of interest as analyzed. Only peptide candidates that can effectively bind and stabilize the peptide-receptive MHC molecules prevent dissociation of the MHC complexes. To determine the yield of the exchange reaction, an ELISA was performed based on the detection of the light chain (β2m) of stabilized MHC complexes. The assay was performed as generally described in Rodenko et al. (Rodenko et al., 2006).
(§2) 96 well MAXISorp plates (NUNC) were coated over night with 2 ug/ml streptavidin in PBS at room temperature, washed 4× and blocked for 1 h at 37° C. in 2% BSA containing blocking buffer. […] Peptide-MHC monomers of the UV-exchange reaction were diluted 100-fold in blocking buffer. Samples were incubated for 1 h at 37° C., washed four times, incubated with 2 ug/ml HRP conjugated anti-β2m for 1h at 37° C., washed again and detected with TMB solution that is stopped with […]. Absorption was measured at 450 nm.

peptide exchange yield	Binder
20 to 50%	GLNTGSALSY [GLNTGSALSY (SEQ ID NO: 146)]
20 to 50%	SSDSSTLPKL [SSDSSTLPKL (SEQ ID NO: 178)]
20 to 50%	ATDLVVLDRY [ATDLVVLDRY (SEQ ID NO: 136)]
20 to 50%	YLPQHTIETY [YLPQHTIETY (SEQ ID NO: 199)]
20 to 50%	GSSDSSTLPKL [GSSDSSTLPKL (SEQ ID NO: 147)]

The binders below were run against T2, HLA-B*07 (human) (assay: UV peptide-exchange ELISA; ++ = yield >20%).
T2 construct: MHC monomer made peptide-receptive by UV cleavage of a UV-sensitive ligand; also called peptide-receptive MHC class I monomer
Excerpt: as §1, §2

peptide exchange yield	Binder
20 to 50%	YPENGVVQM [YPENGVVQM (SEQ ID NO: 469)]
20 to 50%	HPMIDINGIIVF [HPMIDINGIIVF (SEQ ID NO: 278)]
20 to 50%	FPVTSIFHTF [FPVTSIFHTF (SEQ ID NO: 284)]
20 to 50%	FPQKFIDLL [FPQKFIDLL (SEQ ID NO: 288)]

What follows are binders tested against HLA-A*24:02 (human) (assay: preformed pMHC complex on aAPC beads and as fluorescent multimer, in vitro CD8+ T cell priming).
Experimental: (§3) Viable singlet cells were gated for CD8+ lymphocytes. Boolean gates helped excluding false-positive events detected with multimers specific for different peptides.
(§4) 800.000 beads/200 μl were coated in 96-well plates in the presence of 4×12.5 ng different biotin-pMHC, washed and 600 ng biotin anti-CD28 were added subsequently in a volume of 200 μl. […] Half of the medium was then exchanged by fresh TCM supplemented with 80 U/ml IL-2 and incubating was continued for 4 days at 37° C. This stimulation cycle was performed for a total of three times. For the pMHC multimer readout using 8 different pMHC molecules per condition, a two-dimensional combinatorial coding approach was used as previously described (Andersen et al., 2012) with minor modifications encompassing coupling to 5 different fluorochromes. Finally, multimeric analyses were performed by staining the cells with Live/dead near IR dye (Invitrogen, Karlsruhe, Germany), CD8-FITC antibody clone SK1 (BD, Heidelberg, Germany) and fluorescent pMHC multimers. For analysis, a BD LSRII SORP cytometer equipped with appropriate lasers and filters was used. Peptide specific cells were calculated as percentage of total CD8+ cells. Evaluation of multimeric analysis was done using the FlowJo software (Tree Star, Oregon, USA). In vitro priming of specific multimer+CD8+ lymphocytes was detected by comparing to negative control stimulations.

binding result	Binder
binds	VYEKNGYIYF (Synthetic peptide) [SeqID No 504 peptide (VYEKNGYIYF)]

Each binder was assayed against HLA-A*02:01 (human) in the same assay as above.
Experimental: as §3, §4

binding result	Binder
binds	KIQEMQHFL (Synthetic peptide) [SeqID No 520 peptide (KIQEMQHFL)]

Each binder was assayed against HLA-A*02:01 (human) (assay: preformed control pMHC complex for aAPC stimulation).
Experimental: as §4

binding result	Binder
binds	YLLPAIVHI (Negative control peptide for T cell stimulations (still a pMHC complex with A*02:01); also called 533) [DDX5-001 (YLLPAIVHI from DDX5)]

Each binder was assayed against T3, HLA-A*24 (human) (assay: UV peptide-exchange ELISA; + = yield >10%).
T3 construct: MHC monomer made peptide-receptive by UV cleavage of a UV-sensitive ligand; also called peptide-receptive MHC class I monomer
Excerpt: as §1, §2

peptide exchange yield	Binder
10 to 20%	AYTLLGHEFV [AYTLLGHEFV (SEQ ID NO: 77)]
10 to 20%	STIRGELFFF [STIRGELFFF (SEQ ID NO: 12)]
10 to 20%	LIFMLANVF [LIFMLANVF (SEQ ID NO: 39)]
10 to 20%	IQMDEPMAF [IQMDEPMAF (SEQ ID NO: 43)]
10 to 20%	ILKEDPFLF [ILKEDPFLF (SEQ ID NO: 19)]

Each binder was assayed against T4, HLA-B*08 (human) (assay: UV peptide-exchange ELISA; +++ = yield >50%).
T4 construct: MHC monomer made peptide-receptive by UV cleavage of a UV-sensitive ligand; also called peptide-receptive MHC class I monomer

peptide exchange yield	Binder
50 to 75%	DAIQRKYSC [DAIQRKYSC (SEQ ID NO: 309)]
50 to 75%	HLLQKQTSI [HLLQKQTSI (SEQ ID NO: 302)]
50 to 75%	VIKEKALTL [VIKEKALTL (SEQ ID NO: 316)]
50 to 75%	VASPKHCVL [VASPKHCVL (SEQ ID NO: 300)]
50 to 75%	FNKRKPLSL [FNKRKPLSL (SEQ ID NO: 298)]

What follows are binders tested against T5, HLA-A*02 (human) (assay: UV peptide-exchange ELISA; +++ = yield >50%).
T5 construct: MHC monomer made peptide-receptive by UV cleavage of a UV-sensitive ligand; also called peptide-receptive MHC class I monomer

peptide exchange yield	Binder
50 to 75%	NLRDLLSEV [NLRDLLSEV (SEQ ID NO: 92)]
50 to 75%	FALPGLLHA [FALPGLLHA (SEQ ID NO: 91)]
50 to 75%	FIISDWRFVL [FIISDWRFVL (SEQ ID NO: 101)]

Source: patent US11352401
